Measurements: patent publication US20250297004A1, “NECTIN-4 BINDING AGENTS” (INNATE PHARMA, priority 2022, published 2025)
Residue numbers refer to the chain shown, from its start.

T1: human Nectin-4 Mutant 3 (human, UniProt Q96NY8 32-510)
T1 construct: Expressed on transfected HEK293T cells; also called A76S/Q77R/E78A/S91N
T1 chain: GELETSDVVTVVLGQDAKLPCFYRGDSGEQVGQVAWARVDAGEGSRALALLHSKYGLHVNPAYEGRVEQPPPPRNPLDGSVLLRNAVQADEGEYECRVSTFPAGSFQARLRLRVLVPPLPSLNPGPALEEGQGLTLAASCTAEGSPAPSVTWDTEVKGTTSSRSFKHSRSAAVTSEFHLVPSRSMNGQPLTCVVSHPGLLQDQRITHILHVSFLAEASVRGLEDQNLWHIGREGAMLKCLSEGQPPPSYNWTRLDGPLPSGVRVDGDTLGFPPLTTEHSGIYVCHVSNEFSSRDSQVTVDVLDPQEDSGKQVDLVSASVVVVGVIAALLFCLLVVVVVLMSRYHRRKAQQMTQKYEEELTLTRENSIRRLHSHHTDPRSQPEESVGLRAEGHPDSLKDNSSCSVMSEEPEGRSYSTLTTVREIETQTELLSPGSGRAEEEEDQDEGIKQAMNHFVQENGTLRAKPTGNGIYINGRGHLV

T2: human Nectin-4 Mutant 4 (human, UniProt Q96NY8 32-510)
T2 construct: Expressed on transfected HEK293T cells; also called A72P/G73N/G75S
T2 chain: T1 chain with A41P, G42N, G44S, S45A, R46Q, A47E, N60S

T3: human Nectin-4 Mutant 8 (human, UniProt Q96NY8 32-510)
T3 construct: Expressed on transfected HEK293T cells; also called T190A/T191Q/S193A
T3 chain: T1 chain with S45A, R46Q, A47E, N60S, T159A, T160Q, S162A

T4: human Nectin-4 Mutant 1 (S58P/G59D/Q61A/N106D/P107A) (Homo sapiens, UniProt Q96NY8, G59D/N106D/P107A/Q61A/S58P)
T4 construct: expressed in transfected cells; host or cells: HEK293T
T4 sequence (Q96NY8 32-510 S58P/G59D/Q61A/N106D/P107A): T1 chain with S27P, G28D, Q30A, S45A, R46Q, A47E, N60S, N75D, P76A

B1: chimeric parental 5E7 antibody (antibody, V domains shown)
VH: QVQLQQPGAELVKPGASVKLSCKASGYIFTSYWMHWVKQRPGQGLEWIGEIDPSDSYTNYNQKFKGKATLTLDKSSSTTYMQLSSLTSEDSAVYYCVRGYGNYGDYWGQGTTLTVSS
VL: DVVMTQAAFSNPVTLGTSASISCRSSKSLLHSNGITYLYWYLQKPGQSPQLLIYQMSNLASGVPDRFSSSGSGTDFTLRISRVEAEDVGVYYCAQNLELPWTFGGGTKLEIKR
notes: Chimeric antibody, murine variable domains with human constant regions; also called ch5E7; CHG1-M-1N4-5E7
B2: 5E7 (antibody, V domains shown)
VH: QVQLQQPGAELVKPGASVKLSCKASGYIFTSYWMHWVKQRPGQGLEWIGEIDPSDSYTNYNQKFKGKATLTLDKSSSTTYMQLSSLTSEDSAVYYCVRGYGNYGDYWGQGTTLTVSSASTKGP
VL: DVVMTQAAFSNPVTLGTSASISCRSSKSLLHSNGITYLYWYLQKPGQSPQLLIYQMSNLASGVPDRFSSSGSGTDFTLRISRVEAEDVGVYYCAQNLELPWTFGGGTKLEIKRTVAAP
B3: N41 (antibody, V domains shown)
VH: QVQLKQSGPGLVQPSQSLSITCTVSGFSLTNYGVHWVRQSPGKGLEWLGVIWSGGSTDYNAAFISRLSISKDTSKSQVFFKMNSLQADDTAIYYCARELIHAMDNWGQGTSVTVSS
VL: DIQMTQSPASLSVSVGETVTITCRASENIYSNLAWYQQKQGNSPQLLVFAATNLADGVPSRFSGSGSGTQYSLKINSLQSEDFGTYYCQHFWGTPTFGGGTKLEIK

Columns and labels:
human Nectin-4 Mutant 3 = molecular target: T1, human Nectin-4 Mutant 3; assay: binding to HEK293T cells expressing Nectin-4 mutant
human Nectin-4 Mutant 4 = molecular target: T2, human Nectin-4 Mutant 4; assay: as above
human Nectin-4 Mutant 8 = molecular target: T3, human Nectin-4 Mutant 8; assay: as above
[1] = molecular target: T4, human Nectin-4 Mutant 1 (S58P/G59D/Q61A/N106D/P107A); assay: Epitope mapping using Nectin-4 point mutants; assay type: binding
Source text: Combined with the published structures of the Nectin-4 domains, Nectin-4 mutations at surface exposed amino acids residues were designed. Nectin-4 domain structure was modelled based on Protein Data Bank reference: 4FRW (domains V et C1). Human Nectin-4 used was NCBI Reference Sequence: NP_112178.2, mouse Nectin-4 used was NCBI Reference Sequence: AAL79833.1, cynomolgus Nectin-4 used was NCBI Reference Sequence: XP_005541277.1, rat Nectin-4 used was NCBI Reference Sequence: NP_001102546.1. The cells expressing the Nectin-4 mutants are then be used for testing anti-Nectin-4 antibodies for loss of binding to different Nectin-4 mutants to identify antibodies that bind to the same site on Nectin-4. […] FIGS. 8A and 8B show different view of a molecular model of the human Nectin-4 protein, indicating the position of substituted residues in mutants 1, 2, 3, 4, 5, 6, 7, 8 and 9.
Nectin-4 mutants were generated by PCR. The sequences amplified were run on agarose gel and purified using the Macherey Nagel PCR Clean-Up Gel Extraction kit. The purified PCR products generated for each mutant were then ligated into an expression vector, with the ClonTech InFusion system. The vectors containing the mutated sequences were prepared as Miniprep and sequenced. After sequencing, the vectors containing the mutated sequences were prepared as Midiprep using the Promega PureYield™ Plasmid Midiprep System. HEK293T cells were grown in DMEM medium (Invitrogen), transfected with vectors using Invitrogen's Lipofectamine 2000 and incubated at 37° C. in a CO2 incubator for 48 hours prior to testing for transgene expression. The targeted amino acid mutations are shown in Table 13 below, listing the residue present in wild-type Nectin-4/position of residue/residue present in mutant Nectin-4, with position reference being to the Nectin-4 protein with leader peptide shown in SEQ ID NO: 1.
(+) means that antibodies-Nectin-4 association occurs.

Row | Molecule | binding result (human Nectin-4 Mutant 3) | binding result (human Nectin-4 Mutant 4) | binding result (human Nectin-4 Mutant 8) | association with Mutant 1 [1]
1 | B1 | binds | binds | binds | 
2 | B2 |  |  |  | +
3 | B3 | binds | binds | binds | −
